We go through two molecules from patent US6825005B2, “Methods and reagents to regulate apoptosis” (President and Fellows of Harvard College, priority 2000, dated 2004).

For one assay, the system named is caspase 3. In words: Pro-caspase 3 cleavage and activation, immunoblot and fluorogenic activity assay, U2OS cells treated with TNF. In kind it is cell-based, human. To be noted: inducible U2OS lines, TNF treatment. The procedure: Caspase Activation and Cytochrome c Release Assays. U2OS Cells were Induced for 24 hours with 1 μM muristerone and treated for the indicated time with 10 ng/ml TNF plus 30 μg/ml cycloheximide. Cells were trypsinized, washed in PBS, and resuspended in lysis buffer (1% NP40/50 mM Tris HCl/150 mM NaCl, pH 8.0/1 μg/ml each aprotinin and leupeptin/0.01% PMSF), and protein concentration was analyzed by using the Bradford method (Bio-Rad). Sixty micrograms of total cell lysate was then analyzed by Western blot analysis using mAb specific for pro-caspase 3 and pro-caspase 8.
Caspase activity was measured by using fluorescent caspase 8 and caspase 3 activity assays (CLONTECH). Inducible U20S cells were induced with muristerone for 24 hours and treated with 10 ng/ml TNF plus 30 μg/ml cycloheximide for 4.5 hours. Cells were trypsinized, combined with apoptotic cells in the tissue-culture media, counted, and assayed for caspase activity by the manufacturer's protocol on a fluorescent plate reader (excitiation 380 mn, emission 530 nm). For caspase 8 activity, 1×10^6 cells of each line were used, and for caspase 3 activity, 3.5×10^5 cells of each line were used.

Assay [1] deals with cytochrome c release from mitochondria. Description: Cytochrome c release assay, immunoblot of cytoplasmic extracts of U2OS cells treated with TNF. Format: cell-based, human. The conditions noted are these: inducible U2OS lines, TNF treatment. The procedure: For cytochrome c release assays, U2OS cells were induced with muristerone for 24 hours and treated with 10 ng/ml TNF plus 30 μg/ml cycloheximide for 4.5 hours. Cells were then trypsinized, resuspended in sucrose buffer, homogenized in a Teflon tissue homogenizer, and centrifuged at 10,000×g for 10 minutes as described above. Postmitochondrial supernatant (100 μg of protein) was then analyzed by Western blot analysis for the presence of cytoplasmic cytochrome c. Cytochrome c levels were quantitated by using NIH IMAGE software.

The subject of another assay is U2OS cells. In words: Apoptosis assay, Hoechst-stained apoptotic nuclei counted in inducible U2OS cells. The conditions noted are these: cell line expressing the protein, treated with MMC or TNF-alpha. In kind it is cell-based, human. The procedure: Cell Lines and Reagents. U20S Cells were Cultured in DMEM Containing 10% Fetal Calf serum supplemented with 50 units/ml penicillin and 50 μg/ml streptomycin. Inducible hTid-1L, hTid-1S, H121QL, and H121QS were expressed in U20S cells from a plasmid containing a muristerone-inducible promoter (Invitrogen). Inducible cells lines were cultured under constant selection with 50 μg/ml Zeocin (Invitrogen) and 300 μg/ml G418. Gene expression was induced with 1 μM muristerone (Invitrogen) for 24 hours. SAOS-2 cells were cultured in DMEM containing 15% fetal calf serum and 50 units/ml penicillin and 50 μg/ml streptomycin.
Apoptosis Assays. Inducible U2OS Cells were Induced with 1 μM Muristerone for 24 hours, or went uninduced and were treated with either the indicated concentration of mitomycin c (Sigma) for 24 hours or the indicated concentration of TNF plus 30 μg/ml cycloheximide. Cells were fixed by exposure to methanol vapor for 10 minutes followed by immersion in methanol for at least 10 minutes. Cells were stained with 1 μg/ml Hoechst 33258 and 0.1% lowfat milk (Carnation) for 7 minutes and rinsed in water. Apoptotic nuclei were counted by using fluorescence microscopy. For transient-transfection experiments, U2OS cells were transfected by the calcium phosphate technique by using BES-buffered saline. […] Cells expressing green fluorescent protein were counted and scored for apoptotic nuclei.

The next assay has as its target T1, mtHsp70 (Homo sapiens, UniProt P38646).
T1 construct: immunoprecipitate endogenous hTid-1L and hTid-1S in complex with mtHsp70 from human U2OS cells; endogenous in cells
In words: Coimmunoprecipitation-immunoblot with mtHsp70. The conditions noted are these: endogenous proteins, U2OS cells. Format: binding. The method, then: Immunoprecipitation. One 10-cm Plate of SAOS-2 Cells was Trypsinized, Washed in PBS, and lysed in 1% NP40/150 mM NaCl/50 mM Tris HCl, pH 8.0/1 μg/ml each aprotinin and leupeptin/0.01% PMSF on ice. The sample was split into four fractions and incubated for 1 hour with either anti-hTid-1, anti-mtHsp70, or anti-Hsc70 mAbs. Immune complexes were collected on protein G agarose beads (GIBCO) and washed three times in 0.1% NP40 lysis buffer. Samples were then separated by SDS/PAGE, transferred to poly(vinylidene difluoride) membrane, and probed with either anti-mtHsp70, anti-Hsc70, or anti-hTid-1 mAbs. Proteins were visualized by ECL (Amersham Pharmacia) by using x-ray film.

T1 sequence (P38646 47-679): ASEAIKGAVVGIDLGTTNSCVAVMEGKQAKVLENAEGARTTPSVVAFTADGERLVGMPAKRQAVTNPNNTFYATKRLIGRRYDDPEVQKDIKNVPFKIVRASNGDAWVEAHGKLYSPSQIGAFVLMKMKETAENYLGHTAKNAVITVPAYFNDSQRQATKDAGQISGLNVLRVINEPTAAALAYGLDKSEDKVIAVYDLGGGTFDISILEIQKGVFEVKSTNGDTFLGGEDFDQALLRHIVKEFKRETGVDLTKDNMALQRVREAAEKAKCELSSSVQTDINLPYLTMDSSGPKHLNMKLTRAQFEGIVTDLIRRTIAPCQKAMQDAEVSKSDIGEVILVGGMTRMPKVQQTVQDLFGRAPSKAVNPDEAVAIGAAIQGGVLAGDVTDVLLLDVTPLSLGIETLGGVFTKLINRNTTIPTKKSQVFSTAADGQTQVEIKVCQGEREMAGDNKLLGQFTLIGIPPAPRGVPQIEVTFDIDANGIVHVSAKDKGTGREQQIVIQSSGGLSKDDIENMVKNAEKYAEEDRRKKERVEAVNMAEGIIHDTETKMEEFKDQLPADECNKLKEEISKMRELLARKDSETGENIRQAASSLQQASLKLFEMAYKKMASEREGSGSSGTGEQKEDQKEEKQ

B1: hTid-1L: 43 kDa mitochondrial matrix splice variant encoded by human TID1, SEQ ID NO: 8; proapoptotic (protein, listed as Homo sapiens)
chain: MAARCSTRWLLVVVGTPRLPAISGRGARPPREGVVGAWLSRKLSVPAFASSLTSCGPRALLTLRPGVSLTGTKHNPFICTASFHTSAPLAKEDYYQILGVPRNASQKEIKKAYYQLAKKYHPDTNKDDPKAKEKFSQLAEAYEVLSDEVKRKQYDAYGSAGFDPGASGSQHSYWKGGPTVDPEELFRKIFGEFSSSSFGDFQTVFDQPQEYFMELTFNQAAKGVNKEFTVNIMDTCERCNGKGNEPGTKVQHCHYCGGSGMETINTGPFVMRSTCRRCGGRGSIIISPCVVCRGAGQAKQKKRVMIPVPAGVEDGQTVRMPVGKREIFITFRVQKSPVFRRDGADIHSDLFISIAQALLGGTARAQGLYETINVTIPPGTQTDQKIRMGGKGIPRINSYGYGDHYIHIKIRVPKRLTSRQQSLILSYAEDETDVEGTVNGVTLTSSGGSTMDSSAGSKARREAGEDEEGFLSKLKKMFTS
On to B1, for which the “Cleavage and activation of pro-caspase 3 relative to control cells” value in the assay on caspase 3 was “more efficiently”. Besides, in assay [1], the “Cytochrome c released from mitochondria relative to control cells” value was “more cytochrome c is released”. The “Levels of apoptosis relative to control cells” value in the assay with U2OS cells is “markedly increased levels of apoptosis”. Moreover, the “Interaction with mtHsp70 (coimmunoprecipitation)” value in the assay with mtHsp70 is recorded as “interact specifically”.

B2: hTid-1S: 40 kDa mitochondrial matrix splice variant encoded by human TID1, SEQ ID NO: 9; antiapoptotic (protein, listed as Homo sapiens)
chain: MAARCSTRWLLVVVGTPRLPAISGRGARPPREGVVGAWLSRKLSVPAFASSLTSCGPRALLTLRPGVSLTGTKHNPFICTASFHTSAPLAKEDYYQILGVPRNASQKEIKKAYYQLAKKYHPDTNKDDPKAKEKFSQLAEAYEVLSDEVKRKQYDAYGSAGFDPGASGSQHSYWKGGPTVDPEELFRKIFGEFSSSSFGDFQTVFDQPQEYFMELTFNQAAKGVNKEFTVNIMDTCERCNGKGNEPGTKVQHCHYCGGSGMETINTGPFVMRSTCRRCGGRGSIIISPCVVCRGAGQAKQKKRVMIPVPAGVEDGQTVRMPVGKREIFITFRVQKSPVFRRDGADIHSDLFISIAQALLGGTARAQGLYETINVTIPPGTQTDQKIRMGGKGIPRINSYGYGDHYIHIKIRVPKRLTSRQQSLILSYAEDETDVEGTVNGVTLTSSGKRSTGN
Regarding B2, in the assay with caspase 3, the “Cleavage and activation of pro-caspase 3 relative to control cells” value was “decreased cleavage and activation”. The “Cytochrome c released from mitochondria relative to control cells” value in assay [1] was “release less cytochrome c”. In the assay with U2OS cells, the “Levels of apoptosis relative to control cells” value is “decreased levels of apoptosis”. Moreover, the “Interaction with mtHsp70 (coimmunoprecipitation)” value in the assay with mtHsp70 is “interact specifically”.
